This data set can be described thus: self-splicing fitness, log relative to wild type (ln ratio); higher = more splicing; Tetrahymena group I intron in knt gene, E. coli kanamycin selection, DiMSum; sequences stand for … in CUCUCU…GGAGGGAAAAGUUAUCAGGCAUGCACCUGGUAGCUAGUCUUUAAACCAAUAGAUUGCAUCGGUUUAAAAGGCAAGACCGUCAAAUUGCGGGAAAGGGGUCAACAGCCGUUCAGUACCAAGUCUCAGGGGAAACUUUGAGAUGGCCUUGCAAAGGGUAUGGUAAUAAGCUGACGGACAUGGUCCUAACCACGCAGCCAAGUCCUAAGUCAACAGAUCUUCUGUUGAUAUGGAUGCAGUUCACAGACUAAAUGUCGGUCGGGGAAGAUGUAUUCUUCUCAUAAGAUAUAGUCGGACCUCUCCUUAAUGGGAGCUAGCGGAUGAAGUGAUGCAACACUGGAGCCGCUGGGAACUAAUUUGUAUGCGAAAGUAUAUUGAUUAGUUUUGGAGUACUCGUGGUCG
In a few lines:
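Pooled colonies went to amplicon sequencing on an Illumina HiSeq 2500 after six replicate transformations. The plates were LB agar with 100 μg/mL carbenicillin, 50 μM IPTG and 0.2% rhamnose, with or without 25 μg/mL kanamycin, incubated overnight at 37°C or 30°C. The E. coli BL21(DE3) library had all eight P1ex-region intron nucleotides randomised, the intron placed in the knt kanamycin-resistance gene on pET-22b(+). DiMSum fitness is the error-weighted combination of replicate fold changes, kanamycin against none, normalised to wild type.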

± gives the uncertainty stated by the source.

With GGGUAGCAAUAUUACGCCAG, the “self-splicing fitness (ln)” value (37 °C) is -2.81 ± 0.47.

CAUUAGCAAUAUUACGGAUC: the “self-splicing fitness (ln)” value is, setting by setting: (30 °C) -1.46 ± 0.12; (37 °C) -1.6 ± 0.16.

Consider UGGUAGCAAUAUUACGGUGA, for which the “self-splicing fitness (ln)” value by setting is: (30 °C) -1.36 ± 0.12; (37 °C) -1.34 ± 0.12. The matching figures for UGAAAGCAAUAUUACGGCGG: -1.03 ± 0.085 and -0.221 ± 0.14.

As to GCCUAGCAAUAUUACGCGAC, the “self-splicing fitness (ln)” value was -1.92 ± 0.19 (30 °C) and -1.05 ± 0.27 (37 °C). The matching figures for UCCGAGCAAUAUUACGAAUU: -3.49 ± 0.28 and -2.19 ± 0.35. Regarding AUUUAGCAAUAUUACGCCCC, under “30 °C”, the “self-splicing fitness (ln)” value is -0.747 ± 0.37. AGGCAGCAAUAUUACGAUGG: the “self-splicing fitness (ln)” value was -3.56 ± 0.19 (30 °C) and -2.44 ± 0.22 (37 °C). As to UUUGAGCAAUAUUACGUCGC, the “self-splicing fitness (ln)” value by setting is: (30 °C) -3.06 ± 0.49; (37 °C) -2.07 ± 0.47. With GGGCAGCAAUAUUACGGCUG, the “self-splicing fitness (ln)” value runs as follows: (30 °C) -2.27 ± 0.15; (37 °C) -1.8 ± 0.18. Regarding UCCGAGCAAUAUUACGAGGU, where the note is “30 °C”, the “self-splicing fitness (ln)” value is -3.89 ± 0.34. Take GGAUAGCAAUAUUACGUACU: the “self-splicing fitness (ln)” value is, setting by setting: (30 °C) -0.979 ± 0.096; (37 °C) 0.0901 ± 0.14. On to AGAAAGCAAUAUUACGCUAA, for which the “self-splicing fitness (ln)” value was -2.38 ± 0.34 (30 °C) and -1.11 ± 0.4 (37 °C). Regarding CUAGAGCAAUAUUACGGUAC, the “self-splicing fitness (ln)” value (30 °C) was -3.01 ± 0.33. Regarding UGAGAGCAAUAUUACGCACG, the “self-splicing fitness (ln)” value is, setting by setting: (30 °C) -2.77 ± 0.19; (37 °C) -0.671 ± 0.2. As for CUGCAGCAAUAUUACGAGCC, under “30 °C”, the “self-splicing fitness (ln)” value was -2.9 ± 0.31. As for CUGUAGCAAUAUUACGUCGG, the “self-splicing fitness (ln)” value reads like this: (30 °C) -3.47 ± 0.2; (37 °C) -1.87 ± 0.18. The matching figures for GCCAAGCAAUAUUACGUUGA: -2.53 ± 0.065 and -1.39 ± 0.065. In the same order, the values of UAUCAGCAAUAUUACGCAAC are -2.71 ± 0.2 and -1.52 ± 0.17. For the sequence UGCUAGCAAUAUUACGCUCC, the “self-splicing fitness (ln)” value by setting is: (30 °C) -2.06 ± 0.23; (37 °C) -0.757 ± 0.24. In the same order, the values of CAACAGCAAUAUUACGACAG are -0.131 ± 0.073 and 0.499 ± 0.09. For UAAUAGCAAUAUUACGUUUU, the “self-splicing fitness (ln)” value runs as follows: (30 °C) -4.25 ± 0.29; (37 °C) -2.73 ± 0.17.

With CACUAGCAAUAUUACGAUUU, the “self-splicing fitness (ln)” value was -2.4 ± 0.12 (30 °C) and -2.2 ± 0.15 (37 °C).

Regarding AGGUAGCAAUAUUACGCAUA, the “self-splicing fitness (ln)” value is -1.71 ± 0.019 (30 °C) and -0.787 ± 0.034 (37 °C). Turning to UUUAAGCAAUAUUACGAGCA, the “self-splicing fitness (ln)” value runs as follows: (30 °C) -1.38 ± 0.21; (37 °C) -0.686 ± 0.22.

Take AUGAAGCAAUAUUACGUUAU: the “self-splicing fitness (ln)” value is, setting by setting: (30 °C) -0.343 ± 0.071; (37 °C) -0.555 ± 0.096.

As to GCGAAGCAAUAUUACGGUAA, the “self-splicing fitness (ln)” value by setting is: (30 °C) -2.4 ± 0.15; (37 °C) -1.65 ± 0.12. With CCAAAGCAAUAUUACGCCCU, the “self-splicing fitness (ln)” value is -3.49 ± 0.42 (30 °C) and -3.01 ± 0.27 (37 °C). With CCCCAGCAAUAUUACGCAGC, the “self-splicing fitness (ln)” value (30 °C) is -3.44 ± 0.15 and the “self-splicing fitness (ln)” value (37 °C) was -2.84 ± 0.21. In the same order, the values of GAUAAGCAAUAUUACGGGAG are -4.18 ± 0.25 and -2.34 ± 0.15.

Regarding CGAUAGCAAUAUUACGACCC, the “self-splicing fitness (ln)” value (30 °C) was -2.33 ± 0.44. Take AGACAGCAAUAUUACGGUAC: the “self-splicing fitness (ln)” value reads like this: (30 °C) -3.29 ± 0.17; (37 °C) -2.41 ± 0.17.

As to GGUGAGCAAUAUUACGCCCU, the “self-splicing fitness (ln)” value (30 °C) is -1.66 ± 0.41. On to GCCGAGCAAUAUUACGGUGU, for which the “self-splicing fitness (ln)” value is, setting by setting: (30 °C) -2.57 ± 0.11; (37 °C) -0.986 ± 0.11. As for CGCUAGCAAUAUUACGAGGA, the “self-splicing fitness (ln)” value by setting is: (30 °C) -1.5 ± 0.18; (37 °C) -2.97 ± 0.29. As for AUCCAGCAAUAUUACGCUAA, the “self-splicing fitness (ln)” value reads like this: (30 °C) -0.717 ± 0.093; (37 °C) -1.13 ± 0.077.

As for ACAGAGCAAUAUUACGUGUU, the “self-splicing fitness (ln)” value is, setting by setting: (30 °C) -2.64 ± 0.12; (37 °C) -2.51 ± 0.18.

Turning to CGUCAGCAAUAUUACGGGUC, the “self-splicing fitness (ln)” value is -4.23 ± 0.39 (30 °C) and -2.73 ± 0.23 (37 °C).

Turning to GCGAAGCAAUAUUACGAAGA, the “self-splicing fitness (ln)” value is -2.14 ± 0.22 (30 °C) and -0.931 ± 0.21 (37 °C). As to CCCCAGCAAUAUUACGUGCA, the “self-splicing fitness (ln)” value is -4.13 ± 0.18 (30 °C) and -2.17 ± 0.14 (37 °C).
